# Measurements reported in patent US20260029420A1, “ANTI-CB2 ANTIBODIES AND THEIR USE IN A FLOW CYTOMETRY ASSAY TO MEASURE CELL SURFACE CB2 EXPRESSION” (Hoffmann-La Roche Inc., priority 2022, published 2026).
# B1: hCB2-1/622: murine IgG3 monoclonal anti-human CB2 antibody, VH SEQ ID NO: 1, VL SEQ ID NO: 2, HC SEQ ID NO: 3, LC SEQ ID NO: 4 (antibody)
# heavy: EVQLQQSGPELVKPGASVKISCKTSGYTFTEYTMHWVRQSHGKSLEWIGGIDRYNGDTYYNQKFKDKATLTVDRSSSTAYMELRSLTSEDSAVYFCARNGAMDYWGQGISVTVSSATTTAPSVYPLVPGCSDTSGSSVTLGCLVKGYFPEPVTVKWNYGALSSGVRTVSSVLQSGFYSLSSLVTVPSSTWPSQTVICNVAHPASKTELIKRIEPRIPKPSTPPGSSCPPGNILGGPSVFIFPPKPKDALMISLTPKVTCVVVDVSEDDPDVHVSWFVDNKEVHTAWTQPREAQYNSTFRVVSALPIQHQDWMRGKEFKCKVNNKALPAPIERTISKPKGRAQTPQVYTIPPPREQMSKKKVSLTCLVTNFFSEAISVEWERNGELEQDYKNTPPILDSDGTYFLYSKLTVDTDSWLQGEIFTCSVVHEALHNHHTQKNLSRSPGK
# light: DVVMTQTPLSLPVSLGDQASISCRSSQSLVHSNGNTYLHWFLQKPGQSPKLLIYKVSIRFSGVPDRFSGSGSGTDFTLKISRVEAEDLGVYFCSQSTHVPPLTFGAGTKLELKRADAAPTVSIFPPSSEQLTSGGASVVCFLNNFYPKDINVKWKIDGSERQNGVLNSWTDQDSKDSTYSMSSTLTLTKDEYERHNSYTCEATHKTSTSPIVKSFNRNEC
# How the values were obtained:
# Format in all cases: binding
# pANITA3.1 hCB2 (JB175) = molecular target: T1, pANITA3.1 hCB2 (JB175) (Homo sapiens, UniProt P34972); assay: Immunoprecipitation from whole cell lysates; set-up: key to Immunoprecipitation signal intensity: “−” no signal; “+”-“++++” signal intensity; “+”-“++++” signal intensity; “+”-“++++” signal intensity; “+”-“++++” signal intensity
# T1 construct: expressed in transfected cells; host or cells: HEK293
# T1 sequence (P34972 with tags, fused parts or gaps): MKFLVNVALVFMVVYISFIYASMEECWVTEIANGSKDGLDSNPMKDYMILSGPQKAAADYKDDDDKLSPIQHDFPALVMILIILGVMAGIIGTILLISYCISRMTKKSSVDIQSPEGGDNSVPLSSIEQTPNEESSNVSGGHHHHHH
# Protocol: (§1) The positive clones (Table 1) were further characterized by immunofluorescence (IF; Table 2), Western Blot (Table 3, 1) and Immune precipitation (Table 4, 2) on full length hCB2, hCB1, mCB2 stable-transfected CHO-cell lines in addition to the 2 pANITA constructs.
# For immunoprecipitation (IP), whole cell lysates were incubated with the respective antibodies. IP was performed according to established protocols and subsequent western blot as described herein above.
# [1] = molecular target: T2, cell surface CB2 on B-cells (Homo sapiens, UniProt P34972); assay: Flow cytometry detection of baseline cell surface CB2 on B-cells in untreated whole blood; details: increasing antibody concentrations
# T2 construct: measured in whole blood samples from nine different healthy human volunteers of working-age; endogenous in cells; host or cells: B-cells (and basophils and other leukocytes) in human whole blood
# T2 sequence (P34972 whole entry): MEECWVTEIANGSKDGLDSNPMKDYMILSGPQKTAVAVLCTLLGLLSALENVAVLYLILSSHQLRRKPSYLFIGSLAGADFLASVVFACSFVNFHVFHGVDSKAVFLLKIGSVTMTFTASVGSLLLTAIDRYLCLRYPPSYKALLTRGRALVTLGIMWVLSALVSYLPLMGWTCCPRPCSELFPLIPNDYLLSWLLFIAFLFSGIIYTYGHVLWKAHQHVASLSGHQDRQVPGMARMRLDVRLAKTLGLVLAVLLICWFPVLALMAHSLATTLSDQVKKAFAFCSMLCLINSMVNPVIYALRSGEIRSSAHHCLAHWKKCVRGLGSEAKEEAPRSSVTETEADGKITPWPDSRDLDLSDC
# Protocol: FIG. 5A and FIG. 5B: Comparison of different anti-hCB2 antibodies in detecting cell surface CB2 expression on B-cells. FIG. 5A: Flow cytometric analysis with increasing concentrations of hCB2 antibody 1/622 (black dots) and hCB2 clone 352110 (R&D Systems; dark rectangle). A fluorescence minus one (FMO) serves as control as well as the secondary PE labeled antibody alone (0 μg antibody/sample). FIG. 5B: Flow cytometric analysis with increasing concentrations of mouse IgG3 isotype control clone B10 (SBA; open dots), hCB2 antibody 1/622 (black dots), mouse IgG2b isotype control clone 26114 (R&D Systems; open rectangles) and hCB2 clone 352110 (R&D Systems; dark rectangles). The secondary PE labeled antibody alone serves as 0 μg antibody/sample control.
# Detection of baseline expression of cell surface CB2 on B-cells was assessed for clone 1/622 and compared to a commercially available hCB2 antibody (R&D Systems; clone 352110) (5). The flow cytometry experiment was performed as described in Example 3 yet using untreated whole blood samples and using increasing concentrations of the respective anti-human CB2 antibody. […]
# For determination of cell surface expression of CB2 on B-cells, median fluorescent intensity (MFI) was analyzed by gating around the CD45^+ CD3^− CD14^− CD19^+ B-cells (see gating strategy in FIG. 6A to FIG. 6E) and acquiring a minimum of 2000 events in this gate (FIG. 6F). […]
# CHODukx negative = assay: Western blot of cell lysates, negative control; set-up: key: “−” no signal; “+”-“+++++” signal intensity; “+”-“+++++” signal intensity; “+”-“+++++” signal intensity; “+”-“+++++” signal intensity; “+”-“+++++” signal intensity; details: CHODukx negative lysate
# Protocol: as §1
# For Western blot analysis, cells were collected using enzyme free dissociation buffer (Cell dissociation buffer enzyme-free Hanks'-based, Gibco), and washed two times with PBS. To prepare cell lysate, 10^6 cells were lysed with 0.1 ml of lysis buffer (1% NP40, 10% glycerol, 2 mM EDTA, 137 mM NaCl, 20 mM TrisHCl, pH8, Protease Inhibitors) for 10 min on ice. The lysate was cleared by centrifugation at 20′000 g for 5 min. For SDS-PAGE cell lysate was resolved on precast 4-12% gradient gels (NuPAGE® Novex 4-12% Bis-Tris Gel, Invitrogen) with MES running buffer according to the manufacturer's directions. The separation of proteins was visualized by Colloidal Blue staining. The proteins were electrophoretically transferred to nitrocellulose membrane using a dry-blotting system (iBlot, Invitrogen). After blocking the membrane for 16 h in blocking buffer (5% Milk in PBS) at 4° C., specific proteins were detected with appropriate dilutions of mAbs in blocking buffer for 1 h at approximately 20° C. […]
molecule,measurement,setting,value
B1,immunoprecipitation binding,pANITA3.1 hCB2 (JB175); hCB2,specifically binds
same,Immunoprecipitation signal intensity,pANITA3.1 hCB2 (JB175); pANITA3.1 hCB2 (JB175) lysate,++++
same,Median fluorescence intensity on B-cells,[1],dose-dependent increase
same,Western Blot signal intensity,CHODukx negative,−
